Test results as given in patent publication US20180104303A1 (UNIVERSITE DE LA ROCHELLE, published 2018).

Key:
Assay in all cases: cell-based or functional assay
[1] = molecular target: T1, recombinant alpha-glucosidase from Saccharomyces cerevisiae, which is a maltase (Saccharomyces cerevisiae)
[2] = molecular target: T1, recombinant alpha-glucosidase from …; remark: listed apart in the source
[3] = molecular target: T1, recombinant alpha-glucosidase from …; remark: listed apart in the source
DPP-IV from pig kidney = DPP-IV from pig kidney (pig, UniProt P22411 38-766, limits assumed)
DPP-IV from pig kidney, sequence (P22411 38-766 limits assumed): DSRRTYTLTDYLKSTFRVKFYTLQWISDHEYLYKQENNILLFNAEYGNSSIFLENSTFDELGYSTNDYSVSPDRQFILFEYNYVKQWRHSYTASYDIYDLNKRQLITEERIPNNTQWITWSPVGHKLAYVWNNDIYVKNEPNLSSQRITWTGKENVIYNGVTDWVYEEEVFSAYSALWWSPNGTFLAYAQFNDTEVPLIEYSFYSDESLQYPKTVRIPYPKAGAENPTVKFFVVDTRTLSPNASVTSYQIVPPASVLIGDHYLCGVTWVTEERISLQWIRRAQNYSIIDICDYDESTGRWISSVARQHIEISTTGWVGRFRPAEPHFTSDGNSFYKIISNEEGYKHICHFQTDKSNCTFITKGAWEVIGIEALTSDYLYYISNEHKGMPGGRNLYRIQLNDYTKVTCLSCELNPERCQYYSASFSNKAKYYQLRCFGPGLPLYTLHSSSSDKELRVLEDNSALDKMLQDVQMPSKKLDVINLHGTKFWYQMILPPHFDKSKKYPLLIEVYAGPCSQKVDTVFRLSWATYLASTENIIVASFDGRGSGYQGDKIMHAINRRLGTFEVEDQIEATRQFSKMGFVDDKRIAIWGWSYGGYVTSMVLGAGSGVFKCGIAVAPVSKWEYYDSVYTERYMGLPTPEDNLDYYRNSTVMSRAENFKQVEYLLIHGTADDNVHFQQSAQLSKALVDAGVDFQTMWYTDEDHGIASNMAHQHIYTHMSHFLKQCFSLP

Binder | Inhibitory activity on α-glucosidase (IC50) [1] [mM] | Inhibitory activity on α-glucosidase (IC50) in mg/ml [2] [mg/mL] | Inhibitory activity on α-glucosidase (IC50) in mmol/l [2] [mmol/L] | IC50 ratio against the AP and VAP peptides [3] [fold] | (IC50) in mmol/l, inhibition of DPP-IV (DPP-IV from pig kidney) [mmol/L] | IC50 (inhibition of the activity of α-glucosidase in vitro) [3] [mM] | IC50 ratio against acarbose [3] [fold]
LKP [LKP peptide] | 7.11 | 2.53 | 7.11 | ~355 | – | – | –
IY [IY peptide] | 12.3 | 3.6 | 12.3 | – | – | – | –
AP [AP peptide] | 0.0136 | 0.0025 | 0.0136 | – | 4.78 | 0.0136 | ~874
GPL [GPL peptide] | 4.82 | 1.37 | 4.82 | ~243 | 1.85 | – | –
SAPLRVY [SAPLRVY (SEQ ID NO: 3)] | – | 1.42 | 1.76 | – | 1.06 | – | –
AVPYQR [AVPYQR (SEQ ID NO: 5)] | – | 2.34 | 3.19 | – | 5.7 | – | –
KY [KY peptide] | 11 | 3.39 | 11 | – | – | – | –
KW [KW peptide] | 12.8 | 4.24 | 12.8 | – | – | – | –
IPI [Diprotin A (IPI)] | – | – | – | – | 0.0121 | – | –

Other lines, results leading:

Inhibitory activity on α-glucosidase (IC50) [1] [mM] | Inhibitory activity on α-glucosidase (IC50) in mg/ml [2] [mg/mL] | Inhibitory activity on α-glucosidase (IC50) in mmol/l [2] [mmol/L] | IC50 ratio against the AP and VAP peptides [3] [fold] | (IC50) in mmol/l, inhibition of DPP-IV (DPP-IV from pig kidney) [mmol/L] | IC50 (inhibition of the activity of α-glucosidase in vitro) [3] [mM] | IC50 ratio against acarbose [3] [fold] | Binder
2.7 | 0.756 | 2.7 | ~135 | – | – | – | VY [VY peptide]
0.02 | 0.0057 | 0.02 | – | 4.82 | 0.02 | ~595 | VAP [VAP peptide]
– | 2.03 | 2.68 | – | 1.18 | – | – | VAPFPEV [VAPFPEV (SEQ ID NO: 4)]
– | 1.39 | 4.05 | – | 2.27 | – | – | VAPG [VAPG (SEQ ID NO: 6)]
– | 2.29 | 4.59 | – | 10.7 | – | – | VGVAPG [VGVAPG (SEQ ID NO: 7)]
